The record followed here is patent publication US20240293316.

Series [1] deals with NorMMPR (norbornene monomer functionalized with the random peptide R-MMP).
The subject of series [2] is NorMMPD (norbornene monomer functionalized with the D-MMP peptide).
The test system of series [3] is NorMMPL (norbornene monomer functionalized with the L-MMP peptide).

Chain of MMP-9 (chain, as listed by the source): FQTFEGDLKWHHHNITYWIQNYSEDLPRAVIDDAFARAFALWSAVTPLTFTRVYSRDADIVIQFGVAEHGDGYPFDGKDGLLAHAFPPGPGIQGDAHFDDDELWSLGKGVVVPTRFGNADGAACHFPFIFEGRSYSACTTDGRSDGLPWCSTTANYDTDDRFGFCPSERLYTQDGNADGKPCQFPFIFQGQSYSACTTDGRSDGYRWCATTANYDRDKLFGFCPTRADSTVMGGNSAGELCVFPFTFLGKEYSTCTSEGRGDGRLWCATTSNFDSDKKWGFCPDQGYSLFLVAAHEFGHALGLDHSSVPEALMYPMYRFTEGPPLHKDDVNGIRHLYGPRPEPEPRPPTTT

MMP-9: the “MMP-9 cleavage assay (HPLC after 24 hours of incubation with MMP-9 at 37° C.; 0.5 µM MMP-9 : 500 µM NorMMP)” value was “remained intact” in series [1], “remained intact” in series [2] and “NorMMPL was completely cleaved” in series [3].
